In a protein production outcome set (Wang et al. 2014) one finds protein production data, which are given here for 13 sequences.

The nature of the data set: label from the status in PepcDB records.

Take “MIMRQLAHFKFFDTLSKKMVAGFIILILIGTVLLSLPWATPANVHTSLIDVLFTSASATCITGLTVVNTAAHWTTFGQLVILVLSEVGALGYMTFAVLLFNIMRRQIGLSTQLMVKASLNLERLSDTKSVMKYVVGLSLLFQLGGLGLLAIDFVPRFGWRHGLYVSLYHAVMSFCNAGFDVFGDSLQGFRNDPYVLTVTMILIIAGGLGFLVWRDVLLYHTRKRLTLNSKLTLLTTFSLFVIGFVLLLITERDLELLPTGMSWVNRTINTLFLSVTPRTAGLITMPTQGLQAGSLLVIMILMFVGGTPGSTAGGIKTTTFGVLMFQSIAQLRGRRDVEFSHRRFSQENINRALMLIFLASIVLTVATLILTQTEKIPKGFGLEYVLFEVLSAFGTVGLSLGLTPNLTLIGKIVIMMLMFIGRVGIFTSLYALSRRQARVNLIRYPAENILIG”: the protein production result is on record as “failed”.

For the sequence “MIMTVLRQQPRAAGLVLGLIAANFLAWCWALQAFGDSGALMAASLLAWGYGLRHAVDADHIAAIDNVTRKMMQQGRRPFAVGAWFSLGHSSIVVLASAAIAATATAFSTQMSWLHDTGSVIGTAVSALFLLAMAFINLVILRSVWRSFRAWKRGEPVSDEIVSGGGVMSWLFGKTFRLISRSWQMYLVGFLFGLGFDTATEIGVLGISAAGASSGISVWSIMVFPALFASGMALVDTLDNVLMVGAYGWAFSKPQRKLYYNMTITGTSVVVALFIGGLEALGLLMDKFALSGGIWRWVGALNDNLGDAGFVVVGLFVACWALSVLNYRWRGYDNLAR”, the protein production entry is on record as “failed”.

Consider “MINDIKILGVGGSPRKNGNTDVLLDSFLKGAESAGVETKKVLLRDYSIEPCIGCERCRKTGTCTRFHDGMSLLYPEIEAAKGLTLGSPTYNYNVTALMKAFIDRLYPYYNFTNVRPRRYSSKLAGQGRKAIVFSVCEQLEIEEMGFTLGALGMPLEALGYEIVEKFPVTGYFDRGAVSRDEELLRKTFEAGKKMAEALHLEHHHHHH”, for which the protein production entry was “failed”.

For “MINFEATELRLGLPGGNHGGEMAGKNNGKRGFSETVDLKLNLSSTAMDSVSKVDLENMKEKVVKPPAKAQVVGWPPVRSFRKNVMSGQKPTTGDATEGNDKTSGSSGATSSASACATVAYVKVSMDGAPYLRKIDLKLYKTYQDLSNALSKMFSSFTIGNYGPQGMKDFMNESKLIDLLNGSDYVPTYEDKDGDWMLVGDVPWEMFVDSCKRIRIMKGSEAIGLAPRALEKCKNRS”, the protein production entry is on record as “failed”.

For “MINGNTSGLKEYILENLDKLYSTKIEKGKIINQEIVDYISEISNKINREINVAIDRNGNIIDISIGDSSTVNLPVIPVYDKKLSGVRIIHTHPSGNPHLSSVDISALIKLKLDCIVSIGVSEEGVTGYEVAICSIVNDELTYDRTLLENLDDFDYLEEIKEVEENLRKRNITEDDKEYALLIGIDKEEYLDELEELASACDVKVVGRFFQKRSKPDPLFLIGSGKIQELALTRQVRKVNLLIFDEELSGLQLKMIEEVTGCKVIDRTTLILEIFARRARTREAKLQVELAQLKYRSNRLIGFGVTMSRLGGGVGTKGPGEKKLEIDRRVIKKTIAYLNNELENIKKIRNTQRSKREDSGMPRVSLVGYTNVGKSTLRNVLVDMYQNDKTLKKEEVLSQDMLFATLDTTTRTIELKDKRIVSLTDTVGFIQKLPHDLVESFKSTLEEVIFSDLIIHVADISSKNVIEQIDAVEDVLEELNCLDKTKILLLNKIDNVTKDNSFPLMEKKIEEIKAKYSNYQILIISAKNRFNIDELMELIKKNLIVKTYNCKLLIPYVNTEIAARVHRNTIVKSESFVDEGIILEVVMNEKEYNKFKDFIFN”, the protein production entry is “failed”.

Consider “MINIRSFRDLLRLFFIFKREVKITVLVTFIIIVLGAFLLPNRFESTALLLVKPGRDTSTLPIEIADRQAVVIPSAQRDPIIDEERILGGEPIARKVAEKYLDDLSRQPQPSGALATLKNAVKGAVEGIVDLLRGALQLVGLVEKQTPVERLTERMLKSFSVTHAAGSSVMEVSFTWNDPKVAQTVVKSWIEQYQQERAQTLGRKSLYAFYETESGATNQRILGYKKQIADYLNQLGAVSIEERLNDISRNLNNLKGEHLNTTRAVASTRSGLETIQKQLNSMKKEISIGRQMSLNPDRQDLQQRINAKQIERQEMLRTFKEGAPPVRAMDAAIANLQALLKSESGTVQRSENLAPNPVYTRLQNSFADQQASLSRLQTQAAQQETQLLKLEQERRQALAVEPELARLQRELSAAEKSFALYSDSTEKARIDRELDQSQISNIAVIEEATFKPSRVFPKSLSMLLAAIPLSLAVGLLALYFFYLLDQRIHDGDQIEERFGVKVWTSLQDLDSHLPQRNSAFTASLYRLYGILPLKQVALQGLVIGLTSARRGEGVSFVTAHLRDLLQERGHVVRVNGAPNAVPGEIVLLEASGFFSNQEAFVSLREADLIALIVEAETTTVPVLQNALSILTTAFKRVDGIIINRRRFGIPENVLNFLARIRSPH”, for which the protein production entry was “failed”.

As to “MINLELFKEFLLNLIKDYGYFGIFLVGFSEPIFQPFPTEIFIIAGILLGLDWKLVWLISTIACNFGAVVTYYLAKKYGEKLMLKLFDEEKIKKGSHYLKKWGILGVIIASFTPIPFEVICWVCGSFEMPFERYMIAVFLSRLIRHGMVILPFVLKDHIHF”, the protein production result is “failed”.

Turning to “MINMTRKLYYEDAYLKEAKGRVLEIRDNAILLDQTIFYPTGGGQPHDRGTINGVEVLDVYKDEEGNVWHVVKEPEKFKVGDEVELKIDWDYRYKLMRIHTGLHLLEHVLNEVLGEGNWQLVGSGMSVEKGRYDIAYPENLNKYKEQIISLFNKYVDEGGEVKIWWEGDRRYTQIRDFEVIPCGGTHVKDIKEIGHIKKLKRSSIGRGKQRLEMWLE”, the protein production entry is “not failed”.

In the case of “MIPFDYIVEKTVSTGVLVDVIGALLEVGNLTEDYRGLKLPFKIMDQYKEVLQCEAHNDQALEFQRFFQRLTGPQNVIALVSWRLSGIYKLKTLSNDPISKVIANPDIPEVEEIRVVVY”, the protein production entry was “failed”.

With “MIPGEILAVLVVVIPGVVNITYRLGIKKATIVGASADLVVAGLMYFLRPQTGFFYIQDSTMLFIIMVLSVYLLSAIYSTRYLKGIEVMGIREPTYYLLLNLFTASMLFSLEVNNYGLMWVGIEATTISSALLLITEKSETSLEATWRYIIIVSAGVTFAFISIILIYYTLGTLSVSTAIGSHVHSRIMVLAVSLALIGFGTKVGVFPVHTWLPDAHSEAPSPVSAMFSGVLLPTALYVLYRVYEIEPVRGLYVWFAVVSIVAASIFMGYQARYKRMFAYSTMENMNLALLGIAVGGSLGFTGALLLLLSHSFGKAGAFYSSGNILRFTGKKEIAEINGMHTSMPYTSTSLLMSSLAVTGAPPFGTFFGEFLILSGVLSLHMYVQFIIVIVFLAAAFISMNYNVTGMIFNGNCPNIEKDRLMPALSIFSSVIPLFIGIFFLVVYNEIL”, the protein production result is given as “failed”.

Take “MIQLRPCPKSYTRDQDKATTPAETVRRVRERLASLDISILAETRRVDVGRLGIPVFLSVCGADARAVMPTRKQMGKGASLEQAQASALMELMERYSFFTFWRDMPGMVEATWSEARNRFGDALIPVDEILHSVHDTLSPDDAVRALDLWRWKFFPATDITHGREVWLPLDWFKKLGEFNGSSAGNTEEESILQGSCELVERHVCCLIDRTQPELPTIDPASLDDPVLLELAAAFERNGIRLVLKDFSMGMPVPTVGAIAWDPATFPERSEIVYTAGTSSSPVKAAIRAVTEVAQLAGDFCTGACYEASGLSKYESLDDIAWLVAGPVVALDTLPSVETDDIRDELAALCDGLAATGHTLYSVSTMNPDVGVNTHYNIVPGFHFRERDRNASLGLFIGRILSEEADAGTALAGLSVLEELYPGAHFLPFFKGMLALRAESHHEAISFFEQAEPLQPEADSRGLAAFYGAYVRTLLTDWQGALPGLDRAVTECPEMKEYFNLRGVCHFKLGDYAQAAQNFAQVLHIDKGAVVDLANLGLCHKFMGDTEKAEELLSAALEIDPGLDFARRHLDEMRQP”: the protein production entry was “failed”.

Consider “MIQMSSNDSSEVIRQCLQVLESITSDSSVPRNIRRSVNEIMDILNNESEPLFLRAASSISILEDISNDPNLPLHTRTLIWNLSSQLETIPVDE”, for which the protein production entry is given as “failed”.

For the sequence “MIQTFFDFPVYFKFFIGLFALVNPVGIIPVFISMTSYQTAAARNKTNLTANLSVAIILWISLFLGDTILQLFGISIDSFRIAGGILVVTIAMSMISGKLGEDKQNKQEKSETAVRESIGVVPLALPLMAGPGAISSTIVWGTRYHSISYLFGFFVAIALFALCCWGLFRMAPWLVRVLRQTGINVITRIMGLLLMALGIEFIVTGIKGIFPGLLN”, the protein production entry is on record as “failed”.
